Reference: publication PMC7855534

Molecular target: C-terminally strep-tagged wild-type GRK5 (human) (UniProt P34947)
Experiment: ITC

Sequence of UniProt P34947 (P34947 whole entry): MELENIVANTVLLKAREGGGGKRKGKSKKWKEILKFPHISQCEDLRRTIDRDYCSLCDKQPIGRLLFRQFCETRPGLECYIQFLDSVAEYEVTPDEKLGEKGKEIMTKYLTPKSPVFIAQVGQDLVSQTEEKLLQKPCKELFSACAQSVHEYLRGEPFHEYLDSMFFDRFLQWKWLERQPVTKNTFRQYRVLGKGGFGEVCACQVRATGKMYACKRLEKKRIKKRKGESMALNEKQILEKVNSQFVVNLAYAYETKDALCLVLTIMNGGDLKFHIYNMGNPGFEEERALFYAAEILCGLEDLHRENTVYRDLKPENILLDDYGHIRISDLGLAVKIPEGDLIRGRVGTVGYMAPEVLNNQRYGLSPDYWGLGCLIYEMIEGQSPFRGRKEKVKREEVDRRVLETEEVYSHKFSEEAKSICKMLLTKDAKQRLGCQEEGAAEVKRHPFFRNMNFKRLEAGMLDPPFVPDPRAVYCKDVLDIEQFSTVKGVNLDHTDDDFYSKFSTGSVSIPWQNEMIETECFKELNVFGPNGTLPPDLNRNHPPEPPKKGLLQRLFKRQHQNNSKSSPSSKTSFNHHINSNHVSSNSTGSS

- Kd: 278 nM
- dH: 4.3 kcal/mol
Substance: wild-type rat calmodulin (from UniProt P0DP29 1-149) (natural protein; other documents disagree on this pair)
